Test results from patent publication US7189515.

T1: mature human interleukin-8 with C-terminal hexahistidine (human, UniProt P10145 21-99, biotin-XX (NHS ester labelling) in the affinity determination of Example 21; unlabelled in Examples 27 and 34)
T1 construct: mature; also called IL-8; IL8
T1 sequence: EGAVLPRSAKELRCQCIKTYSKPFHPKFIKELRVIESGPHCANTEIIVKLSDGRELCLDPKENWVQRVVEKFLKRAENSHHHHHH

B1: M1-21 (Fab)
heavy: QVQLVQSGGGVVQPGKSLRLSCAASGFTFSYYGMHWVRQVPGKGLEWVAAVWYDGSTTYSPDSVKGRFTISRDDSKNTLYLQMSSLRAEDTAVYYCARDRVGLFDYWGQGTLVTVSSASTKGPSVFPLAPSSKSTSGGTAALGCLVKDYFPEPVTVSWNSGALTSGVHTFPAVLQSSGLYSLSSVVTVPSSSLGTQTYICNVNHKPSNTKVDKKAEPKSHHHHHH
light: not shown
notes: also called monoclonal antibody M1-21; M1_21H
B2: M1-10 (Fab)
heavy: QVQLVQSGGGLVHPGGSLRLSCEGSGFIFRNHPIHWVRQAPGKGLEWVSVSGIGGDTYYADSVKGRFSISRDNAKNSLYLQMNSLRAEDMAVYYCAREYYYGSGSYRVDYYYYGMDVWGQGTTVTVSSASTKGPSVFPLAPSSKSTSGGTAALGCLVKDYFPEPVTVSWNSGALTSGVHTFPAVLQSSGLYSLSSVVTVPSSSLGTQTYICNVNHKPSNTKVDKKAEPKSHHHHHH
light: not shown
notes: also called monoclonal human antibody M1-10; M1_10H

Target: T1, mature human interleukin-8 with …
Test: BIACORE two-site assay, blank-subtracted; IL-8 held by primary antibody (competitor) M1-10
Method: A BIACORE® 3000 instrument (Biacore AB, Uppsala, Sweden) was used to measure the epitope binding.
Each antibody was diluted to 100 µg/mL and the IL-8 was diluted to 1 µM in 10 mM N-2-hydroxyethylpiperazine-N'-2-ethane-sulfonic acid, 150 mM sodium chloride, 3 mM EDTA, 0.005% polysorbate 20, pH 7.4 (HBS-EP, Biacore AB, Uppsala, Sweden). […] IL-8 (10 µL) was then bound to the primary antibody in all 4 channels. One secondary antibody (10 µL) was passed through one channel each. The resonance units of the secondary antibodies were measured 20 seconds after the injection was over. Blank resonance unit values for each primary/secondary antibody combination were obtained by injecting HBS-EP instead of IL-8 and these were subtracted from the resonance units measured for the corresponding primary/secondary antibody pairing that was contacted with IL-8. Blocking antibody injections were not done.

Binder	Resonance Units [RU]
B1	706
B2	-17
